PMC7596997, “The selectivity filter of the mitochondrial protein import machinery” (BMC Biology, 2020)
No end group written: not given here.

Target: T1, cytosolic domain of yeast Tom70 (His-Tom70_(38–617)) (yeast (Saccharomyces cerevisiae), UniProt P07213 38-617)
T1 construct: Tom70, yeast, cytosolic domain, residues 38-617 of the protein of 617 amino acids; plasmid pET10N-Tom70(38–617); also called Tom70cd; isolated Tom70; source: E. coli BL21(DE3), purified (HisTrap, size exclusion; or Ni-NTA beads, batch method); not shown: His tag, N-terminal, kept
T1 sequence (looked up): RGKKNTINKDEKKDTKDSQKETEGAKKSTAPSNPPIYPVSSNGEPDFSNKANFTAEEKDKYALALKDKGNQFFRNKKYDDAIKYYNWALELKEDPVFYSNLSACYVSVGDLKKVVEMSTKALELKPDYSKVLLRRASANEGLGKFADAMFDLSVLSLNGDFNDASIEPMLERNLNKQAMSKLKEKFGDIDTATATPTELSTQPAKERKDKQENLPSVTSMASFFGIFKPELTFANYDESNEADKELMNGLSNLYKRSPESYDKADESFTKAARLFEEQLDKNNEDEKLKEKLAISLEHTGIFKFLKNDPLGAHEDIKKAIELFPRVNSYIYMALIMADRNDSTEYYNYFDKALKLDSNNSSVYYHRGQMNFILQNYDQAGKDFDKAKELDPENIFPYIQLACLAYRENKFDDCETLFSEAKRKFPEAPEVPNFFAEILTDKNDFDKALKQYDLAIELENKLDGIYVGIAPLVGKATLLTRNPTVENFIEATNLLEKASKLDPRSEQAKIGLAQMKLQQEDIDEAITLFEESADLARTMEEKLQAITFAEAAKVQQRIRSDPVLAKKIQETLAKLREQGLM
Experiment: pull-down; purified His-Tom70cd (50 pmol per 100 μl) pre-bound to Ni-NTA beads, incubated 40 min at 30 °C with typically 7% (v/v) reticulocyte lysate containing the [35S]-labelled protein; 10 mM MOPS/KOH, 20 mM imidazole, 150 mM KCl, 1% BSA, pH 7.2; eluted with 1 M imidazole, SDS-PAGE, phosphorimager; in some samples the bead-bound Tom70cd was pretreated with NEM and washed before the lysate was added
Conditions: one partner purified

B1: ML3-DHFR (matrix loop of AAC module III, residues 238–277, fused to DHFR) (domain or fragment, Neurospora crassa, UniProt P02723 238-277, looked up)
chain: PLDTIRRRMMMTSGEAVKYKSSFDAASQIVAKEGVKSLFK
modifications: also: fused to DHFR, [35S]-methionine label
notes: ADP/ATP carrier (AAC), Neurospora crassa, residues 238-277; plasmid pYES2-AAC(238–277)-DHFR; also called the construct containing only the matrix loop; AAC(238–277)-DHFR; source: in vitro translated (TNT coupled reticulocyte lysate, with [35S]-methionine), in lysate
  percent of the total radiolabelled protein bound: < 1%
